B1: minF1; the commonest letter at each place (parent)
chain: GAGACCGCAACTGAAAAGTTGTTATCAGAAATGGATGGGTTGAATTTCTGCACGTAGAAGCAAAAGGC

Variants of: B1
Test: fraction ligated after 30 min (ligated reads / total reads); higher = more ligase activity
Conditions: with F1*subA RNA substrate (template-directed ligation), 42 °C
Procedure, shortened: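 Minimized ligase ribozyme variants came from oligo-pool templates that were PCR-amplified, T7-transcribed and gel-purified. Their ligated and unligated RNAs were separated on gels before barcoded reverse transcription and MiSeq sequencing, with core bases kept only at quality ≥30. The fraction ligated for each variant is its ligated reads as a proportion of all its reads.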

Variant	fraction ligated
A24G G34T	0.000849
A35G T36C	0.00252
G42A A43G A44C	0.00251
G33A A43C	0.0816
G28T A30T	0.832
T23G A43T	0.0898
T23G A43G	0.0673
G37T A43G	0.00602
G33A G37C	0.00669
A24T T36G	0.0114
G34C T36A	0.00257
G34C T36C	0.00419
C26T A31G	0.52
G28T G33C	0.764
A29G A35T	0.023
A29C G34A	0.042
A29C G34C	0.00225
A35C A43C	0.00377
A35C A43T	0.00614
A29T G34A	0.0752
T41C	0.86
A27T G33A	0.829
A27T T32G	0.0604
A27T T32A	0.0711

Variant	fraction ligated
A27T T32C	0.0794
T23A A24T	0.0331
T23A A24G	0.00909
G37T G42C	0.00492
A27G A29G	0.797
G33A A35G	0.265
T32A T36G	0.00433
C26G G33T	0.0124
C26T T32G	0.00682
C26T T32A	0.00354
T23G G42T	0.0401
T32A G37A	0.000603
A27T A35T	0.102
G28T G42T	0.142
T32C G33A	0.0169
T32C G33T	0.0247
T25A T36A	0.00698
A27T A43G	0.281
A24C T36G	0.438
G37C G42A	0.00281
T32G G33C	0.00893
A31G T36G	0.0415
A31G T36C	0.0127
A29G A43G	0.0803

Variant	fraction ligated
T23A A43T	0.00536
T25C A35T	0.009
T25C A35G	0.0463
C26A A44C	0.0236
G42C A43C A44T	0.00191
T25G A29G	0.0196
T25G A29T	0.0188
C26T G28C	0.61
A31G G34C	0.00824
G33T A35T	0.0191
G33T A35C	0.0181
G33T A35G	0.0792
T23C A31G	0.392
T23C A31C	0.328
A27C G33T	0.818
T23A G28T	0.176
T23A G28A	0.178
C26G A35T	0.000597
C26T G37C	0.00325
C26T G37T	0.00513
A30C T36G	0.0467
T23C A30G	0.391
A30T A44G	0.68
A35G G42C	0.00281

Variant	fraction ligated
A35G G42A	0.0121
A24G A30T	0.058
A29C T32G	0.0113
A35T A43C	0.00462
C26T G42A	0.0165
A24G G33T	0.0804
C26G A31C	0.0238
G34A G37A	0.00394
G33T G34A	0.051
T25A A30T	0.0158
A27C A44G	0.38
G28A G33T	0.593
T23A G33C	0.0701
T23A A30C	0.126
A31G G33C	0.765
A35T G42C	0.00256
C26A T32A	0.00455
A35G A44G	0.0773
T25C A30T	0.0786
G28T T32C	0.0326
A27C A31G	0.687
T32A G33C	0.0102
C26A A43C	0.00276
A30G A44G	0.833

Variant	fraction ligated
C26A A27T	0.0953
A31T G37A	0.00615
A35C G37T	0.00578
A29C G37C	0.00528
A29C G37T	0.0129
A29C G37A	0.00482
G37A	0.00659
A30C T32A	0.0274
G28C A29C	0.795
G42C A43G A44T	0.00288
T36A G37C	0.00357
T36A A44C	0.00684
T36A A44G	0.00875
T25A G28T	0.0157
A24C A35G	0.00404
T32C G34A	0.00321
A24G T36A	0.0103
A24G A27T	0.231
A30T G34C	0.00584
T25A G37T	0.00505
T25A G37C	0.00598
T23A G42C	0.00428
A24C T32C	0.00194
C26G A44C	0.00656

Variant	fraction ligated
C26G A44T	0.0283
A30C G42T	0.0701
A30C G42C	0.00724
T32G G37T	0.00459
A27G A43T	0.169
A29T G37C	0.00775
A29T G37T	0.027
C26T	0.433
A24C A44G	0.00645
A24G G42T	0.000969
A24G G42A	0.00347
G33A G34T	0.00656
G33A T36C	0.0229
T23G A31G	0.82
T23G A31C	0.783
T32G T36G	0.00871
T25C A44G	0.0106
A30T T36A	0.0264
T32C G42T	0.0036
T32C G42C	0.00351
A31G A43T	0.168
A27T G42C	0.0569
A24G T32G	0.00185
A30G G42T	0.215

Variant	fraction ligated
G37T A44C	0.00343
G34A G42A	0.0111
A30T G42A	0.202
A27G G37T	0.0232
A27G G37C	0.00672
A29G G34A	0.0509
A29C T36C	0.0172
A29C T36A	0.0288
A35C G42A	0.00288
G42T A43G A44C	0.00145
C26A G33C	0.0427
A24G A43C	0.0035
A24C G34A	0.0317
A24C G34C	0.00204
T23G A29T	0.803
A31C	0.813
A24G T25A	0.00617
T25G C26T	0.00381
G28T A29T	0.829
G28T A29G	0.832
G28T A29C	0.784
G37A A44C	0.00309
T25A A35C	0.0123
G34A A43T	0.00502

Variant	fraction ligated
A24G A31C	0.0105
A24T A43G	0.00117
A31G T32A	0.073
A27C A35G	0.112
G33C A43G	0.0324
G33C A43T	0.0544
G33C A43C	0.0394
T23A T32G	0.000962
T25C G28T	0.207
T32A G34T	0.00436
G33C G42C	0.011
G33C G42T	0.0409
C26T T36A	0.0132
C26G G28A	0.0283
C26G G28T	0.0589
A29T A43C	0.065
T25C G34A	0.00778
A31C G34T	0.00764
G28C T36C	0.0172
G28C T36A	0.0306
A24C C26T	0.0975
A24T T32A	0.00395
G28T G34C	0.00596
G42T A44C	0.00596

Variant	fraction ligated
G28T T36G	0.0726
A27C A43T	0.0472
C26A G37T	0.00569
C26A G37C	0.00572
T23C A43G	0.00398
T25G G37T	0.00311
T25G G37A	0.00178
A35C A44T	0.0114
C26T A29G	0.417
C26T A29C	0.39
C26T A29T	0.43
T25G G34C	0.00366
T25G G34A	0.00816
C26T A44T	0.246
A24C G28C	0.0343
G28A T32A	0.0454
G28C	0.82
A29G T36A	0.0285
T25A	0.00703
T25G	0.0165
C26A A35C	0.00203
A24T A30C	0.00942
A24T A30T	0.00805
A24T A30G	0.0104

Variant	fraction ligated
G34A A44T	0.0265
C26A G34T	0.00758
T23A A29C	0.15
A24T A35T	0.00183
A24T A35G	0.00268
A44T	0.794
C26A A30C	0.0463
A29G G37A	0.0118
G34C A43G	0.00118
C26A A29G	0.0844
A29G A31C	0.803
T36G G42A	0.00463
T36G G42C	0.00216
A24C A43G	0.00364
A30T A31G	0.785
A30T A31T	0.818
T23C G42A	0.0247
A24T G28C	0.0438
A27C G42C	0.0124
A31C G33T	0.355
A30G G33A	0.821
A24C A30C	0.034
T36G A43G	0.00457
A27G A30G	0.824

Variant	fraction ligated
A31C A43G	0.0644
A31C A43C	0.0314
A29T T36C	0.0219
C26A G28T	0.117
C26A G28C	0.0637
A31T T36C	0.0101
T25C T32G	0.00219
A35C T36G	0.00841
A35C T36C	0.00473
A24G A29C	0.0668
T32G A44G	0.0444
T23G A44C	0.693
A27T T36A	0.122
G42T A43C A44C	0.00131
G28A A29T	0.822
T23A G34C	0.00115
G28A T36C	0.0146
G28A T36G	0.0443
T25A A44T	0.0103
T25A A44G	0.00172
T25G A30C	0.0106
G34T A43T	0.00646
G33T A44C	0.149
G33T T36A	0.0253

Variant	fraction ligated
A27G G28T	0.824
A24G C26G	0.00544
T36C G42T	0.00209
T23G G28T	0.803
A29G A30G	0.811
A29G A30C	0.84
T36G A44T	0.0156
A35G	0.271
A31G G42T	0.126
A31G G42A	0.367
A24C A27G	0.0468
G28T G37T	0.0287
T25G G28C	0.0182
T25C A31C	0.0548
A30C G37A	0.009
A27T A29G	0.829
A24T A31G	0.00616
A24T A44G	0.0057
T32G A43T	0.0529
T32G A43C	0.00832
A24T C26G	0.0102
A31C T32A	0.0431
T25G T36G	0.0257
T25G T36C	0.00768

Variant	fraction ligated
G42T A43T A44T	0.00186
G37A A43G	0.00388
T36C G37T	0.00876
T36C G37C	0.0038
A29T G33C	0.721
C26G A43G	0.00467
C26G A43T	0.00299
G33A G42C	0.0145
A29T A35T	0.0234
T25A A43C	0.00284
A31C A35T	0.0132
A31C A35G	0.199
T23C C26A	0.006
A31T A35C	0.0159
A31T A35G	0.339
A24T A27T	0.171
G42T	0.117
G42A	0.364
T23G G34T	0.00441
T23G G34C	0.00122
G33T A43T	0.0265
T32A G42T	0.00743
T32A G42C	0.00255
T32A G42A	0.00239

Variant	fraction ligated
A31T G33C	0.689
A24C A31G	0.0441
A24C A31C	0.0126
A24C A31T	0.0211
A30G A43C	0.179
A29T T32C	0.0232
A29T T32A	0.0493
T23C A35G	0.0141
T23C A35T	0.00507
A30G T32A	0.108
G34C G42T	0.00284
G34C G42C	0.00271
A27T A31T	0.802
T23A T36A	0.0114
T23A T36G	0.0346
G28C A35T	0.0136
A29G G42A	0.28
A35T A44T	0.00912
A29C A30C	0.563
A29C A30T	0.81
G28A G37A	0.00676
G28A G37T	0.0166
